Assay results reported in patent publication US12624096B2, “Anti-tau antibodies and methods of use thereof” (GTInvent Limited, priority 2020, dated 2026).
“Also recorded” adds a separate entry of the source.

B1: S1D12: anti-tau clone from immunised sheep, SEQ ID NO: 32 (protein)
scFv: QVQLQESGPSLVKPSQTLSLTCTVSGFSLNNNAVGWVRQAPGKVPESLVGCSSDGTCYYNSALKSRLDITRDTSKNQISLSLSSVTTDDAAVYYCTRGHYSIYGYDYLGTIDYWGPGLLVTVSSEGKSSGASGESKVDDQAVLTQPSSVSGSLGQRVSITCSGSSSNVGGGNSVGWYQHLPGSGLKTIIYDTNSRPSGVPDRFSGSRSGNTATLTINSLQAEDEGDYYCVTGDSTTHDDLVGSGTRLTVLG
modifications: S1D12 amino acid sequence
B2: S1G2: anti-tau clone, SEQ ID NO: 81 (protein)
scFv: QVQLQESGPSLVKPSQTLSLTCTVSGFSLTSNSVGWVRQAPGKAPEWVAGIDTDGEEGYNPALNSRLSITRDTSKSQVSLSLSSVTSEDTAVYYCGRSYRADGLAYGYVQAIDYWGPGLLVTVSSEGKSSGASGESKVDDQAVVTQPSSVSGSLGQRVSITCSGSFIGISSVGWFQQLPGSGLRTIIVASDGRPSGVPDRFSMSKSGNTATLTISSLQAEDEADYFCGSSDRTPYTGVFGSGTRLTVLG
modifications: S1G2 amino acid sequence

Experiments:
[1] = tested on: human tau and mouse tau; assay: Western blot of WT, L66+/+ and L1+/+ mouse brain homogenates; format: binding; conditions: 20 μg protein, 5-month-old mice
Method: Protein equivalent to 20 μg from each brain extract was separated using 4-20% bis-tris gels and run in 1×MES buffer.
A band is detected in each sample (WT, L66^+/+ and L1^+/+) with an apparent molecular weight of approximately 55 kDa. This band most likely corresponds to endogenous mouse tau which is of a similar size. In the L66^+/+ samples, a second band running at approximately 68 kDa is also detected. The presence of numerous other bands indicates proteolytic truncation of tau within brain homogenates.

[2] = target: hT40 (Homo sapiens, UniProt P10636); assay: Biacore X100 SPR, scAb captured via anti-HuCk, hT40 as analyte; format: binding; conditions: scAb, Table 23, T441 (hT40)
Summary of the method: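 Captured scAb on anti-HuCk CM5 surface (flow cell 1 as reference) in HBS-EP+, capture set for theoretical RMax 100 RU; hT40 injected multi-cycle (0.15625–100 nM) or single-cycle (6.25–100 nM), 120 s association, 420 s dissociation, glycine pH 2.0 regeneration. Kinetics and affinity from 1:1 binding model fit.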

[3] = target: dGA (Homo sapiens, UniProt P10636); assay: Biacore X100 SPR, scAb captured via anti-HuCk, dGA as analyte; format: binding; conditions: dissociation rate
Method: Surface plasmon resonance (SPR) is widely regarded as the gold standard for real time measurement of protein-protein interactions such as antibody binding. All SPR experiments were carried out using a Biacore X100 machine and HBS EP+ running buffer (GE Healthcare). A ‘capture’ method was followed for affinity measurements, where an anti-human constant kappa chain (HuCk) antibody was conjugated to the surface of a CM5 sensor chip using an amine coupling kit and scAb molecules were immobilised via their HuCk domain. Amine coupling is a very common approach for immobilising the ligand to the chip surface. The chip surface has a dextran matrix derivatised with carboxyl groups, which after activation with N-hydroxysuccinimide (NHS) and 1-ethyl-3-(3-dimethylaminopropyl) carbodiimide (EDC), form reactive succinimide esters which allows the covalent capturing of the ligand via any available primary amine groups (e.g. Lysine) on the ligand (in this case anti-HuCk antibody). The capture antibody was diluted 1/100 in 10 mM Sodium acetate buffer pH 5.0 and passed over the activated chip surface for a period of at least 420 s. Final ligand immobilisation levels over 12,000 RU were deemed to be satisfactory.
Following immobilisation, the level of each scAb to be captured was identified using the standard SPR equation with a theoretical RMax of 100 RU. Analyte MW refers to the molecular weight of hT40 or dGA/dGAE molecules, while ligand MW refers to the molecular weight of the scAbs tested. RL is the desired capture level and S refers to the stoichiometric ratio:
The scAb to be tested was added only to flow cell 2 so that flow cell 1 could act as a control to subtract any interaction with the analyte and the chip surface. Both single and multi-cycle runs were utilised using wizards developed in the Biacore X100 control software which are both accepted methods of kinetic analysis (Karlsson, R., et al. Analyzing a kinetic titration series using affinity biosensors (2006) Analytical Biochemistry 349:136-47). The multi-cycle protocol was as follows-Three start-up cycles composed of an initial capture, to the desired level, of the scAb to be tested was performed followed by a 30 s injection of glycine buffer pH 2.0 after each cycle to regenerate the chip surface. The regeneration step removed any captured scAb whilst leaving the capture antibody intact and able to repeat the capture for the next cycle. Following three start-up cycles increasing concentrations (0.15625 nM-100 nM) of the target to be tested were added to the chip surface after the desired scAb capture. The target was added for a 120 s association period and 420 s dissociation period followed by another regeneration, 30 s injection of glycine buffer pH 2.0 in between each cycle.
The single cycle kinetics protocol was similar and utilised the same level of scAb capture. Three start-up cycles were used followed by 5 increasing concentrations of the analyte (6.25 nM-100 nM) for an association period of 120 s followed by a dissociation period of 420 s for each concentration. In single cycle kinetics the regeneration step was performed only after the final analyte concentration was added. Binding responses were analysed in Biacore X100 evaluation software and data fitted to a 1:1 binding model to obtain kinetic and affinity characterisation.

[4] = tested on: alanine substituted 13mer tau peptides; assay: Alanine scanning mutagenesis (ASM) peptide ELISA; format: binding, human; conditions: numbering according to SEQ ID NO: 1; description text 'may be'
Method: To further elucidate epitopes of the scAb panel, and identify the critical amino acids needed for binding, alanine scanning mutagenesis of the parent 13 aa peptides for scAbs CE2, S1D12, CA4 and S1G2 was performed. […] Briefly, 5 μg/ml streptavidin (Thermo Fisher) was adsorbed to Nunc 96-well MaxiSorp plates and following incubation at 37° C., for 1 h, the plates were washed as normal and blocked with 2% MPBS. N-terminally biotinylated peptides (Prolmmune Ltd) were added to the plates and incubated for 1 h at 37° C. Subsequently, test scAbs at starting concentrations of 100-500 nM was added and double diluted across the plate for each peptide and incubated for 1 h at 37° C. Rest of the ELISA was conducted as described above and the plates were read at absorbance 450 nm. Immunoreactivity of the scAb of interest was quantified as the % of scAb was bound for each peptide at a chosen concentration (FIG. 15-20).

hT40, sequence (P10636 1-441 isoform P10636-8): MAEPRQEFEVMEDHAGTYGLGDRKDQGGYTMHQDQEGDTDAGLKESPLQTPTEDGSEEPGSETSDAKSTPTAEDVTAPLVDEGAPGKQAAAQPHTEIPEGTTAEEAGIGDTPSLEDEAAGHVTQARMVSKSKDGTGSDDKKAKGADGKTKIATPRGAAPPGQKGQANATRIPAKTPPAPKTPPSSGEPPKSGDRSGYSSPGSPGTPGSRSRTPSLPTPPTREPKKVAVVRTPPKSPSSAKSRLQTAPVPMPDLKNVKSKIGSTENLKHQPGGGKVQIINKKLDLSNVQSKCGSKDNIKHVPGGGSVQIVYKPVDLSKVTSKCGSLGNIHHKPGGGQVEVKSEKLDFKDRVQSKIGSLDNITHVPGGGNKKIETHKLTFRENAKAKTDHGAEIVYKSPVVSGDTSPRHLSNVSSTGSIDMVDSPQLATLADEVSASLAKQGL
dGA, sequence (P10636 614-707): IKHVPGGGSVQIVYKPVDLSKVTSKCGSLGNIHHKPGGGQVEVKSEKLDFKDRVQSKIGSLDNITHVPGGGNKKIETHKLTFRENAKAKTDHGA

| Molecule | bands detected in western blot of WT, L66+/+ and L1+/+ brain homogenates [1] | ka [2] [M⁻¹ s⁻¹] | kd [2] [s⁻¹] | Kd [3] [s⁻¹] | Critical residues of the epitope [4] |
| --- | --- | --- | --- | --- | --- |
| B1 | numerous bands visible in each mouse sample | 1.252e+06 | 0.00015 | 0.000418 | 343 (K), 346 (F) and/or 349 (R) |
| B2 | numerous bands visible in each mouse sample; also recorded: able to detect the pathologic 10-kDa tau fragment | 1.057e+06 | 0.00018 | 0.0003499 | 370 (K) and/or 374 (H) |
